No end group written: not given here.

T1: human extracellular ErbB4/Fc chimera (human, UniProt Q15303 26-651)
T1 construct: ErbB4, human, extracellular part; also called Fc-conjugated ErbB4; source: bought: R&D Systems (carrier free)
T1 sequence (looked up): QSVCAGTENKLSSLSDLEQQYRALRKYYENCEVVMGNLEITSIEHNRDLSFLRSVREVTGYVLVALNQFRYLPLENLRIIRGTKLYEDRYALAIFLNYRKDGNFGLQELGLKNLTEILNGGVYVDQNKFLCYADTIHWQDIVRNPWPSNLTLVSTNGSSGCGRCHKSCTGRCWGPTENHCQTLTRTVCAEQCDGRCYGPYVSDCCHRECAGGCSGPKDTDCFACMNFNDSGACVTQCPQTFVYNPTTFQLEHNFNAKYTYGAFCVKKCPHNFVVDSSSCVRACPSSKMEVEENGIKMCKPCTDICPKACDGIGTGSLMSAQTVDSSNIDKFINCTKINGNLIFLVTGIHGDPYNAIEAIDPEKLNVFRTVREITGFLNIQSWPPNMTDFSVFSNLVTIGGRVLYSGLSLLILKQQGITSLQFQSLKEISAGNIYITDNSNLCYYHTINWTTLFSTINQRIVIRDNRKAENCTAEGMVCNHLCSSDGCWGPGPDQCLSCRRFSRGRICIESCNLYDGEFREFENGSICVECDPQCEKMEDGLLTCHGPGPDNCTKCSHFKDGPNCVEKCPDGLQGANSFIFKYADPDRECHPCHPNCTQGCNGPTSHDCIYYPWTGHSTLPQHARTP

B1: H6 peptide (S100A4-derived), tetramer on a lysine backbone (peptide)
peptide: NEFFEGFPDKQPRKK
modifications: also: tetramer: four monomers coupled to a lysine backbone
notes: low-homology ('unique') motif in the C-terminal of S100A4; Dendrimeric tetramer: four copies of the peptide on a lysine backbone; source: synthetic peptide (Schafer-N, Denmark)
B2: amphiregulin (ligand, UniProt P15514 101-187, looked up)
chain: SVRVEQVVKPPQNKTESENTSDKPKRKKKGGKNGKNRRNRKKKNPCNAEFQNFCIHGECKYIEHLEAVTCKCQQEYFGERCGEKSMK
notes: amphiregulin (AR), soluble, ligand of EGFR; also called AR; source: bought: R&D Systems (carrier free)
B3: Recombinant human S100A4 (natural protein)
chain: not shown
notes: S100A4 protein, human, recombinant
B4: Sulfo-SBED-S100A4 (natural protein)
chain: not shown
modifications: derivatized with sulfo-SBED (biotin label-transfer cross-linker); sites not stated
notes: S100A4 protein, human, recombinant; The same protein as m1, carrying the sulfo-SBED label for the label transfer cross-linking; also called sulfo-SBED-conjugated S100A4
B5: H3 peptide (S100A4-derived), tetramer on a lysine backbone (peptide)
peptide: KELLTRELPSFLGKRT
modifications: also: tetramer: four monomers coupled to a lysine backbone
notes: motif of S100A4 with high homology within the S100 family; Dendrimeric tetramer: four copies of the peptide on a lysine backbone; source: synthetic peptide (Schafer-N, Denmark)

What all share (details): both partners purified
Assay [1] addresses T1, human extracellular ErbB4/Fc chimera. As to the kind of experiment: SPR; BIAcore 2000; 2000 RU of ErbB/Fc chimera immobilized covalently on a CM4 chip; S100A4 or peptides as analyte; apparent affinities calculated from binding kinetics.
Assay [2] has as its target T2, human extracellular ErbB1/Fc chimera (human, UniProt P00533 25-645).
T2 construct: ErbB1 (EGFR), human, extracellular part; also called EGFR; EGFR-Fc; source: bought: R&D Systems (carrier free)
The assay is described as above.

The target of assay [3] is T3, human extracellular ErbB3/Fc chimera (human, UniProt P21860 20-643).
T3 construct: ErbB3, human, extracellular part; also called Fc-conjugated ErbB3; source: bought: R&D Systems (carrier free)
T3 sequence (P21860 20-643, change not shown): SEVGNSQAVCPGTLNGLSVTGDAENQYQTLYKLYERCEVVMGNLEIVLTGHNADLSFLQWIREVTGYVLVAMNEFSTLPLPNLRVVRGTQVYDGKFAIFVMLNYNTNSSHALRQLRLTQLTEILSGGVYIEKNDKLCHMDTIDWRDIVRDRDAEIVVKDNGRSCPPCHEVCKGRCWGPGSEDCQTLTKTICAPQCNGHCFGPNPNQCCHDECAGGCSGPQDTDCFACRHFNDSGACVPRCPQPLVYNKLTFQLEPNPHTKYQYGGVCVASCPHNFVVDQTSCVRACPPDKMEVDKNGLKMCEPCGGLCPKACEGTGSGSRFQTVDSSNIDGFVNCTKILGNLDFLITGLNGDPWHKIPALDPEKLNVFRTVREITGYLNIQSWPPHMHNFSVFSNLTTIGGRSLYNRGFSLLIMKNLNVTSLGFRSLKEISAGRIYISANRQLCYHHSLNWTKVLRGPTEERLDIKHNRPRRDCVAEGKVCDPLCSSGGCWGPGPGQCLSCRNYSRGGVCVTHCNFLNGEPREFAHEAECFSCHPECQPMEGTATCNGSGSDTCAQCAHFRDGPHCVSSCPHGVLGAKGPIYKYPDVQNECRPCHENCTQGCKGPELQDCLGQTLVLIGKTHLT
The description is as above.

The assay “Recombinant human S100A4” deals with B3. As to the kind of experiment: SPR; BIAcore 2000; 2000 RU of recombinant human S100A4 immobilized covalently on a CM4 chip; soluble AR or NRG as analyte.
Assay [4] has as its target T1, human extracellular ErbB4/Fc chimera. As to the kind of experiment: cross-linking; label transfer in solution: 100 nM Sulfo-SBED-conjugated protein with 50 nM Fc fusion or mouse IgG, 30 min in the dark at RT in TBS-Ca2+, UV 302 nm 5 min, precipitated with Protein A Dynabeads, reduced, biotin detected with streptavidin-HRP.
The target in assay [5] is T2, human extracellular ErbB1/Fc chimera. The assay is described as above.
Assay [6] deals with T3, human extracellular ErbB3/Fc chimera. Described as above.

Sequence of Recombinant human S100A4 (P26447 whole entry, the tested form may be a part): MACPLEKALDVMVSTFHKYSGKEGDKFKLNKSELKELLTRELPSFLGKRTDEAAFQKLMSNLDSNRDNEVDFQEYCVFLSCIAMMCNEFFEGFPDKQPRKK

As for B1, the Kd in assay [1] was 217 ± 19.9 nM; in assay [2], 802 ± 114 nM; in assay [3], 62.3 ± 18.8 nM.
Turning to B2, the Kd in the assay with Recombinant human S100A4 was determined as 71.3 ± 12.3 nM.
Take B3: the Kd in assay [1] is 66 ± 26.9 nM; in assay [2], 21.4 ± 5.5 nM; in assay [3], 58 ± 30 nM.
Turning to B4, the binding result in assay [4], in assay [5] and in assay [6] was “binds” each time.
For B5, the Kd in assay [1] was 199 ± 53.1 nM; in assay [2] it was 107 ± 23.1 nM; in assay [3], 203 ± 46.7 nM.

Source of the values: article PMC6071530, “The S100A4 Protein Signals through the ErbB4 Receptor to Promote Neuronal Survival” (Theranostics, 2018).
